{"source": "the DeepSol protein solubility set"}
{"assay": "soluble on expression in E. coli; label from the status in PepcDB or PDB records"}
{"sequence": "MAGWETHKKAQWLCQLRKGMSMLPDTLSEQFVLYLDVLDGGSFSAAARKHPLTPSAVARRMDALERAVGSTLLVRTTHAVRATPAGLAFADRARRIVTELRLARAEAVSLSTAPQGLIRIDAPVPFGRRHLAPAVADFLKANPGLDVQLRLIGSFIDLQGEHLGEVDLVLRAGPLPDSRLVATSLAPMVRVVCASPEYLREHGVPASPGELPEHAGIDWDNLSPPYAWRFQHDGKLQHLRPKRARLATNNAEAMVDAALAGLGIAHLPTWLCSEYLLRGELQALFCDDGLPAAEPTCIYALRLEREASSRTRLLLAFLRERFGFPPPWDQALQQRLGER", "soluble on expression in E. coli": "not soluble"}
{"sequence": "MAHHHHHHAYLPPNMAERLQMSSSSTEPTTTSSMLPAPHSSANMRHIEGLVVVPGVVKVSRSDVASQYTMPHTNNAPLLFSEPEHRAVDNSSGSNDAQLEPKDPHLGLMPHCLSCTLLTSAGAQEPDDVYGRSMPSSSAVGAVTTELECAVVPTLHASFTPGVSTSIMPAPTEAHSACGSRPLQQPRWGGNYDSGSQCVSFRGADRSNNVSGCGLRLVGDDVEWLQGSFEDSASSPREEVQLSWGHLQRQPCAGKSSAARAVPPALHDVREGTGGEKVLAAHHRFERAVQPQTQRQGVFPSADQENCQAAAMLWAAQQMAVFD", "soluble on expression in E. coli": "soluble"}
{"sequence": "MAHHHHHHMAATKSAVSAAKRKAAKKVSRKSPEYTTLRKSCAPGAIAIILAGRFRGRRAVILKQLPHNGPLVVSGPMKYNGVPIRRIDSRYVIATSTTVDISSVDTAPITAEVFQRPKAEKPTKSEGDFMGDKQKAKAEKAAKKTSKAGKKTLVSDARAQLQKKIDAALIAAIKKDAQGKEKAGYLRSVFTVKPGDAPHRWNW", "soluble on expression in E. coli": "not soluble"}
{"sequence": "MAHHHHHHMAAVDMQVRAGELPEEPKKDLKKEPSGASKSEEEMQSGIKTYYEMKIEEYESIINKKLQNKKRLEAQRNELNTRVRELCDEIQYLLEAASYVGEIVKPMGKNKVLVKINPEGKYVVDISHSVNIAQCTPNTRVALYNDSYKLHKILPSKVDPLVSLMKVEKVPDSTYEMVGGLDQQVKEVKEVIELPVKHPEIFESLGISQPKGVLLYGPPGTGKTLLARAVAHHTDCTFIRVSGSELVQKYIGEGSRMVRELFVMAREHAPSIIFMDEIDSIGSQRIEGEHGDSEVQRTMMELLNQLDGFESTQNIKVIMCTNRIDILDEALLRPGRIDRKIEFPNPNVEARMEILKIHSRKMNLMRGIDMMKIATDMNNCSGAEVKAVCTEAGMFALRERRVHVTQEDFEMAVAKVMKQDAEKNFTLRKLWK", "soluble on expression in E. coli": "soluble"}
{"sequence": "MAHHHHHHMAAYVGSVPPATLTTLAQREVELSLLQFLRQYHPKVDELWRTHPDAEPMETAEEMCMDASDDCKSDHLPRLHRELHDSYVQGRFLFLGESTQGLYSSQPWLAFWALQAADMLDITEKLYEHVSPDALGNFILGCLQEVKKSGTSNDDDMRNNPMDMDEQQESVLLRNPVSIFDDDNDDGKRLVGFAGGQLAQIPHLAASYAALCSLCILPRTTYLRALPRAAIKRWLLSLRCKDGSFCMHTGGEADIRASYCVAVMTVLLQLNDVPAYTDGRDDTVLTEQTAAFVASCQTHEGGFACGLNASEAHGAYTQCGLAALILMRYPHLCKYAALRRWLSARQLKFEGGFNGRTNKLVDSCYSYWVGASHMLLRVGESYMRLLGQTETPRCLTAREALLLDHAQLIDTTSMCPMDDDAWRHAEEIHRQRTAHVEAYLHAPSHSTWKQQTATQSFLDEDVGDFYFNQRRLLLYVLSCCQDKEMGGLMDKPGCLNDAYHTCYSLSGMSTAQNLQYLPRSCTNETLMYATALRRGYIPNERDDYEIVLAVHNSNRGVGCGCYRSQERLSPLNPIFNICQSRVLAALRTWGVKSFIC", "soluble on expression in E. coli": "soluble"}
{"sequence": "MAHHHHHHMADSSCTSAAASVATAAPAFDFKPLQKSNVDLFATAPQVKKLTRREKDKMLRELEVKRAKPRAVDDSSGAAGKGRKGQPRQSDRSAAVAEVVRSATISSSSDDASGIGNKGEKKKSLFETVFDTKEVEKELAAQEDRRSRKRSKKQVLRHALHSNEEEDARTVFVGNLPNTIHKRDVEKIFKSCGSITAVRIRCQALEELDEQHQNMGRAVRVLRGEIKKDAKYSATAYVLFDSAKSIASALEKNGLIFHNRHIVVTTMDVESRAYPPETSIFLGNVAYNTTEEDVWSFFQEHGIADVKRVRLVRDRETGDCKGFGYVEFMHASSVQPAIETRGDKLNGRELRIVHVNKSKEVKVATKSRREKRRSEHAGGRGGAEACKRSRSGGDGDGGSRGSAGYSNFKKPRTDSDLPSWAGLTTNPRRKMPKDLRPLVEGKVEFKPRGPRAPVKRKTRNPEK", "soluble on expression in E. coli": "soluble"}
{"sequence": "MAHHHHHHMADYEPEDNLEQNSTLSSESIQEDISSLLRTKLAGEQWNPAKVDGWVEDIVNSILTELAELKKPYKYIVTCVFMQRTGAALSVGFISLWDNTKDGMVHVPFENDSFHCLVTVYFLKND", "soluble on expression in E. coli": "not soluble"}
{"sequence": "MAHHHHHHMAIPPHGFIEAIHASPLRCVLYVMGAGSSAIAQLTSVAGCSRTLLDARVPYAMAAALQMLDDQPPKMVSATVARQMAQHAHHRAVEYSNGDDDGTLVGIGSTSAVQTNRIRHGKDSAFVAAWSQRQVVEFAMELPGHLARAEQEEQVTLLLFKALAECAKVPFEISFVVEPKRISYIVPDSPLRRLLQGEMKFLVFNTYGELRANFVPYVAETSFAVKPENSWKALLFPGSFRPLHWGHTELARAAVRAMATMKGTLNSTSTDTSSPSWNVPDASNVQVTYEIAVDNADKGIIDSDVELKKRVQQFLQRGARVAVTRARLFTEKALLFPGHGFIVGIDTMKRILDPKYYDNSREAMLRAMEFIREQGGYFVVAGRASGGKDAVWEDLTSIEVPAEVESMLISIRKEDFCVDVSSTMLRERNKSTC", "soluble on expression in E. coli": "not soluble"}
{"sequence": "MAHHHHHHMASAVVAPPRGIKADPRASPNQGRRNGDGGRVLHAVPEEANKRRREREEAQHGAARYRGRNGQAVAELHGTARVKVNLVRRGTSKRRKGGRVGHLHHKPRRAPRPLAKHICPRALGETRISDGRPRPPQPRSDERHGSEGVVAVGAHVPYGSAPLRRRKHRNEAGRQQVRRVRHVRRLVPRVEGEVKPHVQLQRLTRRNHAHVPTQRGEADELGTLLHSNHVKVTAHRRGRRCRPKASARAAAGRERRRHARSRRSAPPAQVRRIDARRVAQKRSTHVHNRVIPDRSNAVRTRRGGRNDTLALRQHETHRRAAARGDLSVPHHNGAVGPHLHLRRQRVPRRHARRQRHIAVLNSHTLVPRAAVGARHAVHPDTRRQPCSRGV", "soluble on expression in E. coli": "not soluble"}
{"sequence": "MAHHHHHHMASSEEEKRVAYCKQHNVHHLFELLATKLLLDRPENPFEYLREMLSKVEESEKSKQSYDPTVLSPPVNGAVEPLKKITLGTFGLDNAGKTTLISALGGQIEVNTTPTVGFTPTKFQTEKYDICIFDLGGAANFRGIWVHYFHDCHGLMFVIDSAADDAVVRESLNVLRDLSQHRYIKGKPILVLANKKDLENARGTKVIPNGFLDKLFGRNTAYRVVASCGIEEDPALEEGVEWLLSVVDKLHDTLEARVNCDTEEVKMEAKRKAAERLAALKTAS", "soluble on expression in E. coli": "not soluble"}
{"sequence": "MAHHHHHHMAWTCSALSNASMIQNLERAALLSTPAIIASLQRVDRGWFVPDGMRSSAYRDEPLSLGHGATISAPHMHAIMLELLSPFLLSTPGSLPKAVLDIGSGSGYLTAILADICGDGSRVVGVEHVVELQERSLKVVLQHFPSWVNEGRITFINGDGRDISKLFHPHTAMFDVIHVGAAAASVPKDYLEAIKPGGCLVIPVGKENEVQHLHLYTKDEKGTITKKTHGGVSFVPLTSLRHQKNRS", "soluble on expression in E. coli": "soluble"}
{"sequence": "MAHHHHHHMAYRVQKTTPAVVDNGTSSDGDEAQRASHKTAKTSSPSPIPKPARRKAPIADSDSDDESATRPAAKTTSPKFALKKAAVDSDSSDEDEPVPKNSSAGKRPAPRAEEAPAQRAARTESEGAARRTPHHLNEDGTFRRFQRIDPAKVTFDADALRDNRPGREHLVLRQNQEMMRTKGKGFNKLKQKNKGKFYGAGVDLSVRAYQFPDSDDE", "soluble on expression in E. coli": "soluble"}
{"sequence": "MAHHHHHHMCHLCDVPVITPDKGVIQSGCGLHPKKTLGNGGAGGVHPGKNTTQETGFPTTGGPNNQHIHLRLCDLVLPRVEYNILPQIFRGVNRDLRHSWSILGGQCGTVKVRRVSLQHAVGATRLHVSVQETAPPFPLHGVTPPLHPLCGAHKLDGQFTDTAGQRTTRPLYTSHTRRIPTAFSLFYSPFFCVPSSNRAPSSSALHVPLTRRWQKGRRRLGTSHARTPRPHSPK", "soluble on expression in E. coli": "not soluble"}
